Experimental data from PMC2756588.

T1: Cdc25, P04821
T1 sequence (P04821 50-136, looked up): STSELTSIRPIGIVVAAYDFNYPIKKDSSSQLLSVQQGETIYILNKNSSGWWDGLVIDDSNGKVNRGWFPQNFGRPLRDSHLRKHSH

T2: Bbc1, P47068
T2 sequence (P47068 1-78, looked up): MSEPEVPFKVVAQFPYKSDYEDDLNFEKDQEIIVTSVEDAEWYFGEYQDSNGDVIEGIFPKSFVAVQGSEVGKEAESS

T3: Boi2, P39969
T3 sequence (P39969 32-116, looked up): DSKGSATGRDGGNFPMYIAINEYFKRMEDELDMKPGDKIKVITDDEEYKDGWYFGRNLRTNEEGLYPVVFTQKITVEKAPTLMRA

T4: Sla1-3, P32790
T4 sequence (P32790 344-424, looked up): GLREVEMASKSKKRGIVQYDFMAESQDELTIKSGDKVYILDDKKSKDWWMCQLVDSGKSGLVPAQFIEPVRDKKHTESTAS

T5: Fus1, P11710
T5 sequence (P11710 432-512, looked up): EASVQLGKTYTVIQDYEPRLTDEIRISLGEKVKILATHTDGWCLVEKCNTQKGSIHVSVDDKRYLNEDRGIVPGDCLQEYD

T6: Sla1-2, P32790
T6 sequence (P32790 60-140, looked up): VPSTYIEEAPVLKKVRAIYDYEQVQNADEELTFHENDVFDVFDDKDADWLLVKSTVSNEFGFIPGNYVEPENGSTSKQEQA

T7: Lsb3, P43603
T7 sequence (P43603 385-451, looked up): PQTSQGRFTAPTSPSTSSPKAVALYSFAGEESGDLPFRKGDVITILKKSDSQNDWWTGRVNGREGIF

T8: Lsb4, P32793
T8 sequence (P32793 402-468, looked up): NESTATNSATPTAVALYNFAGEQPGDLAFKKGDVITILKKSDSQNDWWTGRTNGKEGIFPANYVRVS

T9: Hse1, P38753
T9 sequence (P38753 208-285, looked up): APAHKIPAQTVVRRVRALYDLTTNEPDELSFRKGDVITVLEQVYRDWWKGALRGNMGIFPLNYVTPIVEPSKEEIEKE

T10: Pex13, P80667
T10 sequence (P80667 295-386, looked up): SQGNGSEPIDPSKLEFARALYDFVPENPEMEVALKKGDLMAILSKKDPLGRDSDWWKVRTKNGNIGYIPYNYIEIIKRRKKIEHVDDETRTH

T11: Bud14, P27637
T11 sequence (P27637 247-328, looked up): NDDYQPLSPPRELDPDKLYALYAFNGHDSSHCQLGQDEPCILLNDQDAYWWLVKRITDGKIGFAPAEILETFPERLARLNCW

T12: Lsb1, P53281
T12 sequence (P53281 45-122, looked up): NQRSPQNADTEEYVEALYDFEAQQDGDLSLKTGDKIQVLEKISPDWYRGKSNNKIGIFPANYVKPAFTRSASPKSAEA

T13: Abp1, P15891
T13 sequence (P15891 535-592, looked up): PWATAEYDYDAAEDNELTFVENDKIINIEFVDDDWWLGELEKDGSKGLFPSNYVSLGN

T14: Boi1, P38041
T14 sequence (P38041 1-86, looked up): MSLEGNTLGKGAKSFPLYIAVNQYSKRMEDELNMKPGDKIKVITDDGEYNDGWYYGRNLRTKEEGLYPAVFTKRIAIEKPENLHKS

T15: Bzz1-1, P38822
T15 sequence (P38822 478-572, looked up): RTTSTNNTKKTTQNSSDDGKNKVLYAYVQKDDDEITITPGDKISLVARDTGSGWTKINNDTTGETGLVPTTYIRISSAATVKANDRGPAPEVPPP

T16: Cyk3, Q07533
T16 sequence (Q07533 1-83, looked up): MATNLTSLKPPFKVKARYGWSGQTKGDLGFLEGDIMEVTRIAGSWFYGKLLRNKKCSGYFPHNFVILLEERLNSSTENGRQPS

T17: Nbp2, Q12163
T17 sequence (Q12163 103-180, looked up): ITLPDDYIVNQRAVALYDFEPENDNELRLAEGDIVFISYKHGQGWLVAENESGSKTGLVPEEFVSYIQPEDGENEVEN

T18: Hof1, Q05080
T18 sequence (Q05080 590-669, looked up): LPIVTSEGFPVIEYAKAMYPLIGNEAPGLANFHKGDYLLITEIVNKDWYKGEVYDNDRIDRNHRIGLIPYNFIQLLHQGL

T19: Myo5, Q04439
T19 sequence (Q04439 1072-1160, looked up): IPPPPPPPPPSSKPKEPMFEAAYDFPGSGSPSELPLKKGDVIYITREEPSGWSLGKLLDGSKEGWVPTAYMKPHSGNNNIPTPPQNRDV

T20: Pin3, Q06449
T20 sequence (Q06449 53-122, looked up): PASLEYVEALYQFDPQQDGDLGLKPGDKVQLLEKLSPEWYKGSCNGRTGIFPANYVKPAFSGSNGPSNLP

T21: Bzz1-2, P38822
T21 sequence (P38822 568-633, looked up): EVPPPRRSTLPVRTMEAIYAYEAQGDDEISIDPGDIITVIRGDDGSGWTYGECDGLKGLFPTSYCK


Columns and labels:
Test in all cases: SPOT array
[1] = target: T1, Cdc25, P04821; details: median of control spots 969
[2] = target: T2, Bbc1, P47068; details: median of control spots 796
[3] = target: Myo3, P36006; details: median of control spots 468
[4] = target: T3, Boi2, P39969; details: median of control spots 1161
[5] = target: Bem1-1, P29366; details: median of control spots 4282
Bem1-1, P29366, sequence (P29366 55-141): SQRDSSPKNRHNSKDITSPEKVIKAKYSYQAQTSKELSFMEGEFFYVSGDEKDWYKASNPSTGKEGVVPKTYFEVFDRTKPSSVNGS

[6] = target: T4, Sla1-3, P32790; details: median of control spots 5475
[7] = target: T5, Fus1, P11710; details: median of control spots 1200
[8] = target: T6, Sla1-2, P32790; details: median of control spots 712
[9] = target: Bem1-2, P29366; details: median of control spots 4347
Bem1-2, P29366, sequence (P29366 139-227): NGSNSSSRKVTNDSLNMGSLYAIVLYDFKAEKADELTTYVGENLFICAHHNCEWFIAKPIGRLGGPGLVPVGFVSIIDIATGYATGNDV

[10] = target: GST; details: median of control spots 978
[11] = target: T7, Lsb3, P43603; details: median of control spots 406
[12] = target: T8, Lsb4, P32793; details: median of control spots 397
[13] = target: T9, Hse1, P38753; details: median of control spots 1727
[14] = target: T10, Pex13, P80667; details: median of control spots 1341
[15] = target: Sho1, P40073; details: median of control spots 1148
Sho1, P40073, sequence (P40073 287-367): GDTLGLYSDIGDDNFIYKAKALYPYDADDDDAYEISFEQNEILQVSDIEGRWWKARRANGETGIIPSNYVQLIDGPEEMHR

[16] = target: T11, Bud14, P27637; details: median of control spots 956
[17] = target: Rvs167, P39743; details: median of control spots 2707
Rvs167, P39743, sequence (P39743 419-482): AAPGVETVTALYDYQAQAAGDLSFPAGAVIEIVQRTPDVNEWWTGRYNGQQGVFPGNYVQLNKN

[18] = target: T12, Lsb1, P53281; details: median of control spots 388
[19] = target: T13, Abp1, P15891; details: median of control spots 935
[20] = target: T14, Boi1, P38041; details: median of control spots 1162
[21] = target: T15, Bzz1-1, P38822; details: median of control spots 4446
[22] = target: T16, Cyk3, Q07533; details: median of control spots 1451
[23] = target: T17, Nbp2, Q12163; details: median of control spots 357
[24] = target: T18, Hof1, Q05080; details: median of control spots 4086
[25] = target: T19, Myo5, Q04439; details: median of control spots 471
[26] = target: T20, Pin3, Q06449; details: median of control spots 2171
[27] = target: T21, Bzz1-2, P38822; details: median of control spots 4538

Row | Binder | SPOT intensity [1] | SPOT intensity [2] | SPOT intensity [3] | SPOT intensity [4] | SPOT intensity [5] | SPOT intensity [6] | SPOT intensity [7] | SPOT intensity [8] | SPOT intensity [9] | SPOT intensity [10] | SPOT intensity [11] | SPOT intensity [12] | SPOT intensity [13] | SPOT intensity [14] | SPOT intensity [15] | SPOT intensity [16] | SPOT intensity [17] | SPOT intensity [18] | SPOT intensity [19] | SPOT intensity [20] | other results
1 | STPQTMRQAPKRPDA | 0 | 8 | 47 | 1 | 0 | 2 | 0 | 2 | 2 | 1 | 45 | 33 | 0 | 116 | 4 | 0 | 0 | 24 | 102 | 0 | SPOT intensity [21]: 0; SPOT intensity [22]: 1; SPOT intensity [23]: 53; SPOT intensity [24]: 0; SPOT intensity [25]: 47; SPOT intensity [26]: 192; SPOT intensity [27]: 2
2 | VRTRRRPPPPPIPST | 0 | 115 | 296 | 1 | 0 | 1790 | 0 | 4 | 109 | 2 | 38 | 39 | 29 | 8 | 46 | 8 | 45 | 171 | 107 | 1 | SPOT intensity [21]: 1720; SPOT intensity [22]: 1; SPOT intensity [23]: 35; SPOT intensity [24]: 6; SPOT intensity [25]: 188; SPOT intensity [26]: 11; SPOT intensity [27]: 4030
3 | QPQRTAPKPPISAPR | 3 | 55 | 294 | 1 | 0 | 9 | 0 | 0 | 45 | 0 | 2 | 1 | 0 | 44 | 0 | 2 | 0 | 3 | 42 | 0 | SPOT intensity [21]: 2; SPOT intensity [22]: 0; SPOT intensity [23]: 276; SPOT intensity [24]: 0; SPOT intensity [25]: 230; SPOT intensity [26]: 7; SPOT intensity [27]: 2
4 | LEFRAILFIPKRAPF | 29 | 22 | 34 | 4 | 3 | 8 | 87 | 6 | 1 | 0 | 26 | 18 | 6 | 59 | 103 | 13 | 0 | 35 | 92 | 10 | SPOT intensity [21]: 0; SPOT intensity [22]: 1; SPOT intensity [23]: 53; SPOT intensity [24]: 5; SPOT intensity [25]: 9; SPOT intensity [26]: 68; SPOT intensity [27]: 0
